The source of these data is US20250276077A1, “EPHA2 ANTIBODIES” (Immunome, Inc., priority 2022, published 2025).

In test [1] the target is Human EphA2 (human) (UniProt P29317). The experiment in a line: IHC/IF on frozen human tumor tissue: ANC.
The target is the same in test [2]. The experiment in a line: IHC/IF on frozen human tumor tissue: CRC.
The target is the same in test [3]. In words: IHC/IF on frozen human tumor tissue: ESO.
The target is the same in test [4]. The experiment in a line: IHC/IF on frozen human tumor tissue: GAC.
Test [5] has the same target. The experiment in a line: IHC/IF on frozen human tumor tissue: HNC.
The target is the same in test [6]. In words: IHC/IF on frozen human tumor tissue: OVA.
Test [7] shares this target. The experiment in a line: IHC/IF on frozen human tumor tissue: STS.
For test [8] the target is unchanged. In words: IHC/IF on frozen human tumor tissue: URO.
Test [9] shares this target. In words: IHC/IF on frozen human tumor tissue: MELA.
Test [10] shares this target. In words: IHC/IF on frozen human tumor tissue: PANC.
Test [11] has the same target. In words: IHC/IF on frozen human tumor tissue: PROC.
Test [12] has the same target. The experiment in a line: IHC/IF on frozen human tumor tissue: TNBC.
Test [13] has the same target. In words: IHC/IF on frozen human tumor tissue: ER+ BRC.
Test [14] has the same target. The experiment in a line: IHC/IF on frozen human tumor tissue: NSCLC-SQ.
Test [15] has the same target. In words: IHC/IF on frozen human tumor tissue: Her2+ BRC.
Test [16] shares this target. In words: IHC/IF on frozen human tumor tissue: NSCLC-Adeno.
For test [17] the target is unchanged. The experiment in a line: IHC/IF on frozen human tumor tissue: RCC-papillary.
Test [18] has the same target. In words: IHC/IF on frozen human tumor tissue: RCC-clear cell.
The target is the same in test [19]. In words: IHC/IF on frozen human tumor tissue: UCEC-papillary.
Test [20] has the same target. The experiment in a line: IHC/IF on frozen human tumor tissue: UCEC-clear cell.
The target is the same in test [21]. The experiment in a line: IHC/IF on frozen human tumor tissue: UCEC-endometrioid.

Take 6997S (around Arg907) (antibody): the IHC score was 2 in the test with Human EphA2 (human) [1]; 1 with Human EphA2 (human) [2]; 2 in the test with Human EphA2 (human) [3]; 1 with Human EphA2 (human) [4]; 1 with Human EphA2 (human) [5]; 1 with Human EphA2 (human) [6]. In addition, the IHC score was found to be 1 with Human EphA2 (human) [7]; 1 in the test with Human EphA2 (human) [8]; 2 with Human EphA2 (human) [9]; 1 in the test with Human EphA2 (human) [10]; 1 with Human EphA2 (human) [11]; 1 with Human EphA2 (human) [12]. Further, the IHC score with Human EphA2 (human) [13], in the test with Human EphA2 (human) [14], in the test with Human EphA2 (human) [15], in the test with Human EphA2 (human) [16], in the test with Human EphA2 (human) [17] and in the test with Human EphA2 (human) [18] was 1 each time. The results for the IHC score with Human EphA2 (human) [19], with Human EphA2 (human) [20] and with Human EphA2 (human) [21] were 2, 2 and 1, respectively.

On to Ab73254 (extracellular) (antibody), for which the IHC score with Human EphA2 (human) [1], with Human EphA2 (human) [2], with Human EphA2 (human) [3], with Human EphA2 (human) [4], with Human EphA2 (human) [5] and in the test with Human EphA2 (human) [6] was 1 in each case. For the same substance, the IHC score is 1 in the test with Human EphA2 (human) [7]; 1 in the test with Human EphA2 (human) [8]; 2 with Human EphA2 (human) [9]; 1 with Human EphA2 (human) [10]; 1 in the test with Human EphA2 (human) [11]; 1 with Human EphA2 (human) [12]. Besides, the IHC score worked out at 1 with Human EphA2 (human) [13]; 2 in the test with Human EphA2 (human) [14]; 1 with Human EphA2 (human) [15]; 2 with Human EphA2 (human) [16]; 1 with Human EphA2 (human) [17]; 1 with Human EphA2 (human) [18]. The values for the IHC score in the test with Human EphA2 (human) [19], with Human EphA2 (human) [20] and with Human EphA2 (human) [21] were 1, 2 and 1, respectively.

Take LS-B1794-50 (AA 450-500) (antibody): the IHC score in the test with Human EphA2 (human) [1], with Human EphA2 (human) [2], with Human EphA2 (human) [3], in the test with Human EphA2 (human) [4], with Human EphA2 (human) [5] and in the test with Human EphA2 (human) [6] was 1 throughout. Further, the IHC score with Human EphA2 (human) [7] was found to be 1; with Human EphA2 (human) [8], 1; in the test with Human EphA2 (human) [9], 2; with Human EphA2 (human) [10] it was 1; with Human EphA2 (human) [11], 1; with Human EphA2 (human) [12] it was 1. Further, the IHC score was 1 with Human EphA2 (human) [13]; 1 with Human EphA2 (human) [14]; 1 with Human EphA2 (human) [15]; 2 with Human EphA2 (human) [16]; 2 in the test with Human EphA2 (human) [17]; 1 in the test with Human EphA2 (human) [18]. The figures for the IHC score in the test with Human EphA2 (human) [19], in the test with Human EphA2 (human) [20] and with Human EphA2 (human) [21] were 2, 2 and 1, respectively.

Turning to “LS-C36249-100 (extracellular) (antibody)”, the IHC score amounted to 2 in the test with Human EphA2 (human) [1]; 1 with Human EphA2 (human) [2]; 2 in the test with Human EphA2 (human) [3]; 1 in the test with Human EphA2 (human) [4]; 2 with Human EphA2 (human) [5]; 2 in the test with Human EphA2 (human) [6]. Moreover, the IHC score was 2 with Human EphA2 (human) [7]; 1 with Human EphA2 (human) [8]; 3 in the test with Human EphA2 (human) [9]; 1 with Human EphA2 (human) [10]; 1 in the test with Human EphA2 (human) [11]; 1 in the test with Human EphA2 (human) [12]. The IHC score in the test with Human EphA2 (human) [13] turned out to be 1; with Human EphA2 (human) [14], 2; with Human EphA2 (human) [15], 2; with Human EphA2 (human) [16], 2; with Human EphA2 (human) [17] it was 1; with Human EphA2 (human) [18] it was 1. For the same substance, the results for the IHC score with Human EphA2 (human) [19], with Human EphA2 (human) [20] and with Human EphA2 (human) [21] were 3, 2 and 2, respectively.

For the substance LS-C100255-400 (AA 30-60) (antibody), the IHC score with Human EphA2 (human) [1], in the test with Human EphA2 (human) [2], with Human EphA2 (human) [3], with Human EphA2 (human) [4], with Human EphA2 (human) [5] and with Human EphA2 (human) [6] was 1 each time. The IHC score with Human EphA2 (human) [7] was 1; with Human EphA2 (human) [8], 1; in the test with Human EphA2 (human) [9] it was 2; with Human EphA2 (human) [10], 1; in the test with Human EphA2 (human) [11], 1; with Human EphA2 (human) [12] it was 1. The IHC score in the test with Human EphA2 (human) [13], with Human EphA2 (human) [14], with Human EphA2 (human) [15], with Human EphA2 (human) [16], with Human EphA2 (human) [17] and in the test with Human EphA2 (human) [18] was 1 in each case. For the same substance, the IHC score with Human EphA2 (human) [19] was found to be 2; with Human EphA2 (human) [20], 2; in the test with Human EphA2 (human) [21] it was 1.

In the case of MAB3035 (Gln25-Asn534) (antibody), the IHC score with Human EphA2 (human) [1] was determined as 2; with Human EphA2 (human) [2], 1; with Human EphA2 (human) [3] it was 2; with Human EphA2 (human) [4] it was 1; in the test with Human EphA2 (human) [5] it was 2; with Human EphA2 (human) [6] it was 2. Also, the IHC score came out at 1 with Human EphA2 (human) [7]; 1 with Human EphA2 (human) [8]; 3 with Human EphA2 (human) [9]; 2 with Human EphA2 (human) [10]; 1 with Human EphA2 (human) [11]; 1 with Human EphA2 (human) [12]. Besides, the IHC score was found to be 1 with Human EphA2 (human) [13]; 2 in the test with Human EphA2 (human) [14]; 1 in the test with Human EphA2 (human) [15]; 2 with Human EphA2 (human) [16]; 1 with Human EphA2 (human) [17]; 1 with Human EphA2 (human) [18]. Moreover, the IHC score with Human EphA2 (human) [19], in the test with Human EphA2 (human) [20] and in the test with Human EphA2 (human) [21] was 2 throughout.
